Source: the supplement of paper PMC7125110
± gives the standard error. This sample holds only a part of the variants without activity.

B1: glmS ribozyme (parent)
chain: AUAAAAGCGCCAGAACUACAGAAAUGUAGUUGACGAGGAGGAGGUUUAUCGAAUUUUCGGCGGAUGCCUCCAAA

How the values were obtained:
Conditions in all cases: with glucosamine-6-phosphate
glucosamine-6-phosphate [1] = variants of: B1; test: self-cleavage kobs at 40 uM GlcN6P; higher = faster cleavage; RNA array
Procedure, shortened: (§1)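 kcat and KM were obtained from weighted Michaelis–Menten fits across concentrations of kobs values. Those came from one- or two-exponential decay fits to per-tile medians normalised to baseline and to non-cleaving reference variants. The variants were barcoded ribozymes transcribed in situ by E. coli RNA polymerase on sequenced MiSeq chips and tracked through a hybridised Cy3 probe at 37 °C, with 40 μM to 10 mM glucosamine-6-phosphate in HEPES/KCl/Mg(OAc)2 buffer flowed in.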

glucosamine-6-phosphate [2] = variants of: B1; test: self-cleavage kobs at 2500 uM GlcN6P; higher = faster cleavage; RNA array
Procedure, shortened: as §1

glucosamine-6-phosphate [3] = variants of: B1; test: self-cleavage kobs at 10000 uM GlcN6P; higher = faster cleavage; RNA array
Procedure, shortened: as §1

glucosamine-6-phosphate [4] = variants of: B1; test: self-cleavage kobs at 160 uM GlcN6P; higher = faster cleavage; RNA array
Procedure, shortened: as §1

glucosamine-6-phosphate [5] = variants of: B1; test: self-cleavage kobs at 640 uM GlcN6P; higher = faster cleavage; RNA array
Procedure, shortened: as §1

Variant	self-cleavage kobs at 40 uM GlcN6P (glucosamine-6-phosphate [1]) [s⁻¹]	self-cleavage kobs at 2500 uM GlcN6P (glucosamine-6-phosphate [2]) [s⁻¹]	self-cleavage kobs at 10000 uM GlcN6P (glucosamine-6-phosphate [3]) [s⁻¹]	self-cleavage kobs at 160 uM GlcN6P (glucosamine-6-phosphate [4]) [s⁻¹]	self-cleavage kobs at 640 uM GlcN6P (glucosamine-6-phosphate [5]) [s⁻¹]
G7U U31G G62A	< 1e-05	< 1e-05	< 1e-05	–	–
A14G A15U G29A	3.49e-05 ± 1.3e-05	–	0.00133 ± 0.00028	–	–
G59C U65A	< 1e-05	–	< 1e-05	< 1e-05	< 1e-05
U54C C71U	0.000802 ± 8.6e-05	0.0101 ± 0.0027	0.036 ± 0.0094	0.00142 ± 0.00023	0.00401 ± 0.00061
G44U U57C	< 1e-05	< 1e-05	< 1e-05	–	< 1e-05
C8U A12G C50U C68G	3.9e-05 ± 1.6e-05	0.000476 ± 0.00018	6.84e-05 ± 1.7e-05	0.000221 ± 8.4e-05	0.00022 ± 8.6e-05
A33G C71U	< 1e-05	–	< 1e-05	–	–
C61A G62U	< 1e-05	–	< 1e-05	< 1e-05	< 1e-05
U54G U65G C67G	3.01e-05 ± 1.5e-05	–	0.00213 ± 0.00029	–	–
G32U G40U U46C U54G C70G	< 1e-05	–	–	–	–
U30A G62A	< 1e-05	< 1e-05	< 1e-05	–	< 1e-05
G44C C58U	< 1e-05	< 1e-05	< 1e-05	< 1e-05	< 1e-05
A6C A52U G60U	< 1e-05	–	–	–	–
C34A C61A G63U	< 1e-05	–	< 1e-05	–	–
A6G A12C C71A	< 1e-05	–	–	–	–
G9A C16G A52U	< 1e-05	–	< 1e-05	–	–
G43C G63U	< 1e-05	< 1e-05	–	< 1e-05	< 1e-05
U30A G38A U65C C70G	< 1e-05	–	< 1e-05	–	< 1e-05
U47G G60U	< 1e-05	< 1e-05	–	< 1e-05	–
G29C U49A	< 1e-05	–	< 1e-05	–	–
C8U G51A A52G G63C	< 1e-05	–	–	–	–
G35U A52C	< 1e-05	–	< 1e-05	–	–
C10U G40A C67A	< 1e-05	–	< 1e-05	–	–
G7C C70A	< 1e-05	< 1e-05	< 1e-05	< 1e-05	< 1e-05
A15G U30G	0.000265 ± 4.2e-05	–	0.00934 ± 0.002	0.000476 ± 0.00016	0.00124 ± 0.00035
A36U U45C C50U	< 1e-05	–	–	–	–

Variant	self-cleavage kobs at 40 uM GlcN6P (glucosamine-6-phosphate [1]) [s⁻¹]	self-cleavage kobs at 2500 uM GlcN6P (glucosamine-6-phosphate [2]) [s⁻¹]	self-cleavage kobs at 10000 uM GlcN6P (glucosamine-6-phosphate [3]) [s⁻¹]	self-cleavage kobs at 160 uM GlcN6P (glucosamine-6-phosphate [4]) [s⁻¹]	self-cleavage kobs at 640 uM GlcN6P (glucosamine-6-phosphate [5]) [s⁻¹]
C8A U31C G40A A42C U65A G66A	< 1e-05	–	–	–	–
G59U C61U	< 1e-05	–	< 1e-05	–	< 1e-05
C11U U31C U47C A52U	< 1e-05	–	< 1e-05	–	–
A6G G32U G37C A64U C68G C70G	< 1e-05	–	–	–	–
C10U G59C C68A	< 1e-05	–	< 1e-05	–	–
C10U A12G G43U	< 1e-05	< 1e-05	< 1e-05	–	< 1e-05
C10G C16U	< 1e-05	–	–	< 1e-05	–
G9A U55G	< 1e-05	–	–	< 1e-05	–
A6U G38U A48U A52G C68A U69G	7.26e-05 ± 3.3e-05	–	8.71e-05 ± 2.3e-05	–	–
G29A A36U A39G G41U C67G	< 1e-05	< 1e-05	–	–	–
A15U G37C G38U	< 1e-05	–	–	–	–
C34G G63C	< 1e-05	–	< 1e-05	< 1e-05	< 1e-05
A48U U49A	< 1e-05	–	–	< 1e-05	< 1e-05
G41A G51C	< 1e-05	–	–	< 1e-05	< 1e-05
A6C U56C	< 1e-05	–	–	< 1e-05	–
U31G G43C	< 1e-05	< 1e-05	–	< 1e-05	< 1e-05
A6U A33U A64G	< 1e-05	< 1e-05	–	–	–
C10G C61U C71A	< 1e-05	–	–	–	–
A6G G32U C34U	< 1e-05	< 1e-05	< 1e-05	–	< 1e-05
G29U A53C C68U	< 1e-05	–	3.37e-05 ± 1.6e-05	–	–
A14U C16G G32U G44A A48C C61U U69G	< 1e-05	–	–	–	–
C8U G13C	< 1e-05	–	< 1e-05	< 1e-05	< 1e-05
A42G U55G G62C	< 1e-05	< 1e-05	< 1e-05	< 1e-05	–
G29C U45A C68G	< 1e-05	–	< 1e-05	–	–
C11U A36G G38C U69C	< 1e-05	–	–	–	–
